Legend:
[1] = system: RNA polymerase holoenzyme Esigma38 (Escherichia coli); test: EMSA; details: 1 uM Rsd; binding buffer, salt, pH and temperature not given in the material; heparin competitor in NAP footprints
[2] = target: T1, RNA polymerase sigma factor σ^70 (E. coli, UniProt P00579 1-613); test: cross-linking; 3 µg Rsd with 3 µg σ^70, σ^38 or Rsd (or each protein alone), 30 minutes in 15 µl 50 mM HEPES pH 7.4, 5% glycerol, 0.1 mM EDTA, 0.1 mM DTT; 0.02% glutaraldehyde, room temperature 30 minutes; SDS gel, Coomassie staining; details: both partners purified
T1 construct: RNA polymerase sigma factor σ^70 (RpoD), E. coli; also called free σ^70; sigma D
T1 sequence (P00579 whole entry): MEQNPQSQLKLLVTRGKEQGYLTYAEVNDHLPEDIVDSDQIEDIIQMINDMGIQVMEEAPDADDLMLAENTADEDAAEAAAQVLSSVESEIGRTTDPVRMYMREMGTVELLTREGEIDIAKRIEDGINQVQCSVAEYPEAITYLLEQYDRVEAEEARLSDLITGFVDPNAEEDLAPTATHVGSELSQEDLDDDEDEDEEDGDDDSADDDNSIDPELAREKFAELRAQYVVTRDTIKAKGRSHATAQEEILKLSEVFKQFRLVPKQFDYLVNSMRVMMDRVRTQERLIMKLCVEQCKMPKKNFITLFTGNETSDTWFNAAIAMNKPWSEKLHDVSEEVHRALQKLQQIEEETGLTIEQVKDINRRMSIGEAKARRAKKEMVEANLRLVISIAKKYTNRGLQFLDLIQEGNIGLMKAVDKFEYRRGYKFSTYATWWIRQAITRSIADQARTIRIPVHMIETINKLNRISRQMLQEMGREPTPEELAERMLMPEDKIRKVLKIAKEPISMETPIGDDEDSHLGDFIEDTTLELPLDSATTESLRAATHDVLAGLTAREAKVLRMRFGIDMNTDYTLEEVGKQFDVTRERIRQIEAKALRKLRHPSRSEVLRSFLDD

[3] = target: the molecule itself; test: as above
[4] = target: T1, RNA polymerase sigma factor σ^70; test: pull-down; biotinylated Rsd incubated with the protein of interest (molar ratios 1:1 or 1:3) for 1 hour in TGED buffer on ice, held on Streptavidine MicroBeads column, four washes, elution with SDS buffer; SDS gel, Coomassie and silver staining; details: both partners purified
[5] = target: T2, RNA polymerase sigma factor σ^38 (E. coli, UniProt P13445 1-330); test: as above; details: both partners purified
T2 construct: stationary phase-specific sigma factor σ^38 (RpoS), E. coli; also called σ^s; RpoS
T2 sequence (P13445 whole entry): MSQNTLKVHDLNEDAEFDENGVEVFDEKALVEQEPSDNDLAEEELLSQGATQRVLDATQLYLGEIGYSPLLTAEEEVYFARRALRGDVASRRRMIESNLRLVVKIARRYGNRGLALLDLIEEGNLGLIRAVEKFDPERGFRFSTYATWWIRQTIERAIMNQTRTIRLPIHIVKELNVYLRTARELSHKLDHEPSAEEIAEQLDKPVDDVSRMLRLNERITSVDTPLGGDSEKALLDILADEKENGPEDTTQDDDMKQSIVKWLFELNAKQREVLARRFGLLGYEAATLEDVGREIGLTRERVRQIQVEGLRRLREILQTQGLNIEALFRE

Molecule: fic promoter fragment
- binding signal (% of complex remaining) [1]: 50

B1: Rsd (regulator of sigma D), native protein (natural protein, E. coli, UniProt P0AFX4 1-158, looked up)
chain: MLNQLDNLTERVRGSNKLVDRWLHVRKHLLVAYYNLVGIKPGKESYMRLNEKALDDFCQSLVDYLSAGHFSIYERILHKLEGNGQLARAAKIWPQLEANTQQIMDYYDSSLETAIDHDNYLEFQQVLSDIGEALEARFVLEDKLILLVLDAARVKHPA
notes: Rsd (regulator of sigma D), E. coli; No tag is mentioned; also called native Rsd; anti-sigma factor Rsd; source: E. coli BL21DE3pLysS/pUC18-Rsd, purified (DEAE-Sephadex A25, P11-phosphocellulose, NH4SO4 precipitation)
- binding result [2]: binds
- stoichiometry N [3]: 2

B2: Biotinylated Rsd (natural protein, E. coli, UniProt P0AFX4 1-158, looked up)
chain: B1 chain
modifications: biotin (9 fold excess of Biotinyl-N-hydroxy-succinimide; modified residues not stated)
notes: Rsd (regulator of sigma D), E. coli; Held on Streptavidine MicroBeads through the biotin; also called Biotinylated-Rsd protein; immobilized Rsd; source: E. coli BL21DE3pLysS/pUC18-Rsd, purified, then biotinylated with Biotinyl-N-hydroxy-succinimide
- binding result [4]: binds
- binding result [5]: binds

— paper PMC3089606, “The E. coli Anti-Sigma Factor Rsd: Studies on the Specificity and Regulation of Its Expression” (PLoS ONE, 2011)
